From publication PMC6877527, “Sugar-mediated regulation of a c-di-GMP phosphodiesterase in Vibrio cholerae” (Nature Communications, 2019)

Columns and labels:
GST-PdeS (V. cholerae) = test: MST; NanoTemper Monolith NT.115pico; GST-PdeS labeled with NT-647 at 4.875 nM; unlabeled EIIA^Glc titrated in 1:1 serial dilutions from 21.9 uM; 25 mM HEPES-NaOH pH 7.6, 100 mM NaCl, 5 mM beta-mercaptoethanol, 0.5 mg/ml BSA, 0.05% Tween 20; 15% LED power, 30% MST power, 22 C
VC1710 (PdeS) = molecular target: T1, VC1710 (PdeS) (Vibrio cholerae, UniProt Q9KRD2); test: biochemical
T1 construct: gene VC_1710

hexahistidine-tagged EIIA^Glc, dephosphorylated form (natural protein)
Kd (GST-PdeS (V. cholerae)): 114 nM

Nc1nc2c(ncn2[C@@H]2O[C@@H]3CO[P@](=O)(O)O[C@H]4[C@@H](O)[C@H](n5cnc6c(=O)[nH]c(N)nc65)O[C@@H]4CO[P@](=O)(O)O[C@H]3[C@H]2O)c(=O)[nH]1 [c-di-GMP]
Kd (VC1710 (PdeS)): ~8.7 µM

hexahistidine-tagged EIIA^Glc, phosphorylated form (natural protein)
Kd (GST-PdeS (V. cholerae)): 287 nM
